For one molecule, Kd results are on record in article PMC11319201 (2024).

Test [1] addresses T1, STAG2–RAD21 complex (wild type) (human | , UniProt Q8N3U4 1-1231; O60216 1-631).
T1 chain 1: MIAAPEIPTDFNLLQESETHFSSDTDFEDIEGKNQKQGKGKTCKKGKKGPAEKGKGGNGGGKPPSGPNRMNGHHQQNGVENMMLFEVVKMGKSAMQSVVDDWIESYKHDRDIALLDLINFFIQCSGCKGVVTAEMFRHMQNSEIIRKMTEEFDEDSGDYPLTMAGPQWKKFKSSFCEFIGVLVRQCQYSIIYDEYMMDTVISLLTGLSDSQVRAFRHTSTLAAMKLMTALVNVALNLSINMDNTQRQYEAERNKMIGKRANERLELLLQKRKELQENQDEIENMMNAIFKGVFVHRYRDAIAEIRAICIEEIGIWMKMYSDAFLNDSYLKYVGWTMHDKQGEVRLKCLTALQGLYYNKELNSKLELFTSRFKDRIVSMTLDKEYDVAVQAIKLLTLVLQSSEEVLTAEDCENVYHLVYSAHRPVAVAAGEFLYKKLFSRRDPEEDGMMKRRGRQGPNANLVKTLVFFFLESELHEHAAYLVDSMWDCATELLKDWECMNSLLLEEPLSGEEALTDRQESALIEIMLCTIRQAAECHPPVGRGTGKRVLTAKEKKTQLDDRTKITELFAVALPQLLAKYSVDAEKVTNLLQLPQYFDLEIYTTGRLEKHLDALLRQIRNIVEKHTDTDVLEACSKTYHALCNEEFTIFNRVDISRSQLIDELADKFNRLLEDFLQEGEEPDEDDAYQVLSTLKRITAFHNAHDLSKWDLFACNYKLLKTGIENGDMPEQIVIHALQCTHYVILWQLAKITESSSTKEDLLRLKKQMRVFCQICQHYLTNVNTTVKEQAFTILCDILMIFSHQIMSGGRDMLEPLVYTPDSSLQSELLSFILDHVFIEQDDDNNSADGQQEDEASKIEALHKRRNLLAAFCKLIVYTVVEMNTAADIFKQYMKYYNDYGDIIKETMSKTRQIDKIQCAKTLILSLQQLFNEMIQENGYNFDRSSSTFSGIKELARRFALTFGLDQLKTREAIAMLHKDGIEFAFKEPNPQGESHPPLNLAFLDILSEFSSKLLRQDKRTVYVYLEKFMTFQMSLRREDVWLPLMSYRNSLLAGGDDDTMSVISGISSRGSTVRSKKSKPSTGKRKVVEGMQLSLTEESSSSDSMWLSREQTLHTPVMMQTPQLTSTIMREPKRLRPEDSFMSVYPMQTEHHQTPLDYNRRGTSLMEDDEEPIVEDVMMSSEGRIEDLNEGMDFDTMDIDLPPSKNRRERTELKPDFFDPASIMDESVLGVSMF
T1 chain 2: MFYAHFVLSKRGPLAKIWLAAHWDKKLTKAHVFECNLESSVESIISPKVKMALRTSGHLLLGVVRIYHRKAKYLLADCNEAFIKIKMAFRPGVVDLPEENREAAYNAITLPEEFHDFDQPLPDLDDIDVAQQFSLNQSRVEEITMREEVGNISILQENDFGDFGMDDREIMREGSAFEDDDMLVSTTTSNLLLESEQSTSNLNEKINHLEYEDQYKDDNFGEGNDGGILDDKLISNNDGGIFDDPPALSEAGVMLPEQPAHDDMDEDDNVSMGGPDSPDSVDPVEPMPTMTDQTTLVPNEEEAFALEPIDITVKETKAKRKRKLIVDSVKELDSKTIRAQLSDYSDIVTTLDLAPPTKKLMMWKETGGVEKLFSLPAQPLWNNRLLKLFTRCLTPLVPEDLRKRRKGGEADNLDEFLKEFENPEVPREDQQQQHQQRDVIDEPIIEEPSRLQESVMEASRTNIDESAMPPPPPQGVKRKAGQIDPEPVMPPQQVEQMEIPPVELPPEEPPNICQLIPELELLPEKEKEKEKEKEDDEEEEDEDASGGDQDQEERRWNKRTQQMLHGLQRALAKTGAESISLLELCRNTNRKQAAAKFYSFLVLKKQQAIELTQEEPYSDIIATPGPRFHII
Nature of the test: ITC. (ITC needs no label: the signal is the heat of the interaction.)

The target in test [2] is STAG2^R370Q–RAD21 complex (human | , UniProt Q8N3U4 1-1231; O60216 1-631, R370Q). Nature of the test: ITC.
Chain of STAG2^R370Q–RAD21 complex (Q8N3U4 whole entry R370Q, chain 1 of 2, one chain of several): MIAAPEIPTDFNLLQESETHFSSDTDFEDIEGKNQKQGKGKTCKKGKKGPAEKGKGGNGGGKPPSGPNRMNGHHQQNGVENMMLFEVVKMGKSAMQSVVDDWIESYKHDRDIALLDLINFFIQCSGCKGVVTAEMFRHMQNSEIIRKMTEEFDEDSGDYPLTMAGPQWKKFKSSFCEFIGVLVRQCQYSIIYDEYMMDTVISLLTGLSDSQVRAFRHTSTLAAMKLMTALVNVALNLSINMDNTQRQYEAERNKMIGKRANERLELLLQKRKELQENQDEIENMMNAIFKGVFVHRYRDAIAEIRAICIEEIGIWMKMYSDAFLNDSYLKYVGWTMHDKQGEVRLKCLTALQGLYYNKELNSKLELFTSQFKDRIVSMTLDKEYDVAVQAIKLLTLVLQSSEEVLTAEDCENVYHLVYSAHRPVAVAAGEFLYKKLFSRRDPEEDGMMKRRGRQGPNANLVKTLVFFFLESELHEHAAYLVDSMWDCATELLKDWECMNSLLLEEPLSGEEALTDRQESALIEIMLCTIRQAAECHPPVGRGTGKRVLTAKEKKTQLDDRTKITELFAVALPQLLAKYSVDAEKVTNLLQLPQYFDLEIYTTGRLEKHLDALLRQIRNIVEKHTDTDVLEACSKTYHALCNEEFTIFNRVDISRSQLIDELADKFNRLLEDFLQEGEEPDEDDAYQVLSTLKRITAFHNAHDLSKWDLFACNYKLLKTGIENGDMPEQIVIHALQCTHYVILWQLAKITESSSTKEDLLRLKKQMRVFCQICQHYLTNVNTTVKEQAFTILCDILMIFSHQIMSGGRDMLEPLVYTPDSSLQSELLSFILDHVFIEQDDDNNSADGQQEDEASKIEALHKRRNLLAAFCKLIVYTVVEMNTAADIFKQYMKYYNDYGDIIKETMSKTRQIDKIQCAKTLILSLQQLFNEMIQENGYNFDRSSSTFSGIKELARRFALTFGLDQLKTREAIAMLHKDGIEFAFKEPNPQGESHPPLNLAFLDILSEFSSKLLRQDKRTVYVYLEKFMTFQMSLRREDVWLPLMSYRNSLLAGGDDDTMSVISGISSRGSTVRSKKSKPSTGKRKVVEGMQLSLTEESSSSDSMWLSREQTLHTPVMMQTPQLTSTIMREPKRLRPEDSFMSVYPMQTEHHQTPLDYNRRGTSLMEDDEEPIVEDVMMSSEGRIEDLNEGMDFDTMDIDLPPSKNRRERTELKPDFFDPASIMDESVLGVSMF

B1: CTCF peptide (peptide)
chain: DVSVYDFEEE
The Kd is a measure of binding affinity in units of concentration. High values mean a looser complex, low ones a tighter complex. On to B1, for which the values for the Kd in test [1] and in test [2] were 1.92 µM and 21.7 µM, respectively.
